Measured values taken from publication PMC3139646, “Synthesis and Investigation of a Radioiodinated F3 Peptide Analog as a SPECT Tumor Imaging Radioligand” (PLoS ONE, 2011).

How the values were obtained:
[1] = test system: MDA-MB-435 tumor xenografts; assay type: in vivo, mouse
Protocol: At 4 h, kidney and bladder were not visualized likely due to voiding of urine. It is possible that the presence of urine radioactivity in kidney and bladder, at the early time intervals, could have contributed to an overestimation of tissue radioactivity uptake in these organs in the images. […] Intestinal radioactivity was clearly apparent in the 4 h images, which is most likely due to a shift in radioactivity clearance from the renal to hepatobiliary excretion pathway at later time intervals.
Mouse SPECT/CT imaging studies were performed on a GMI Tri-Modality CT/PET/SPECT small animal scanner (Gamma-Medica Ideas, Inc., Northridge, CA). SPECT images were acquired using a dual-head, high-resolution, low-energy parallel-hole collimator. CT imaging of animals was performed for anatomical co-registration and CT fusion of SPECT images were performed using AMIRA (version 3.1) software (Visage Imaging, San Diego, CA USA). Imaging was performed when tumors reached a 60–100 mm^3 average volume.

[2] = test system: MDA-MB-435 tumor-bearing athymic nude mice; conditions: mouse, in vivo, iv
Protocol: Kidney uptake of radioactivity (5.68%ID/g and 10.8% ID/g at 5 and 30 min respectively post-injection) was the highest among all sampled tissues confirming that renal elimination is the major excretory pathway for the radioligand (Table S1). In tumors, radioactivity levels peaked at 30 min post-injection (1.05% ID/g).
(A) Tissue distribution at 60 min post injection and reported as percent injected dose per gram of tissue (%ID/g). (B) and (C) represent the ratio of radioactivity in tumor to blood and tumor to muscle respectively at various time intervals. All the data are computed as mean +/− SEM.
Female CD-1 nude mice (nu/nu, 25–28 g) bearing MDA-MB-435 mammary fat pad tumor xenografts on opposite sides were utilized for the biodistribution studies. Four animals (N = 4) were used per time point. […] Selected tissues (blood, heart, liver, lung, spleen, adrenals, tumor, kidney, muscle, whole brain and thyroid) were harvested and tissue samples were assayed for activity using a Gamma Counter. Tissue uptake was computed as % injected dose/gram (%ID/g).
All the data are computed as mean +/− SEM. (DOCX) Click here for additional data file.

[3] = test system: tumor-bearing athymic nude mice; conditions: mouse, in vivo, iv
From the text: The remaining radioactivity consisted primarily of two hydrophobic radiometabolites representing 47% and 18% of the total plasma radioactivity. […] In contrast, the parent radioligand accounted for 42% of the total radioactivity present in mouse urine samples at this time interval. The remaining radioactivity consisted of three major hydrophobic radiometabolites representing 28%, 6.8% and 10% of the total. […] This is possibly due to its high in vivo tumor affinity which results in its rapid sequestration and retention within the tumor cells in a nucleolin dependent manner.
Blood and urine samples were collected, centrifuged at 12,000 rpm for 15 min, and the supernatants transferred to a fresh centrifuge tube and the centrifugation repeated. The supernatants were treated with CH3CN and centrifuged again to precipitate proteins and the clear supernatants analyzed by radio-HPLC (Method I).

[4] = Storage stability of formulated radioligand (radio-HPLC); assay type: physicochemical; conditions: formulated in PBS:EtOH [95:5], stored at 5°C, radio-HPLC analysis
Protocol: The 3-(tri-n-butylstannyl)[…] analog 8 was obtained from the N-succinimidyl-3-(tri-n-butylstannyl)benzoate analog 7 using the approach described for the synthesis of 5 (Scheme A). […] The radioiodinated product was well resolved from the tri-n-butylstannyl starting material (Rt>25 min) under the HPLC conditions. […] The radioligand which was formulated in PBS∶EtOH [95∶5] was stable for at least 1 week when stored at 5°C (<2% radiolytic decomposition by radio-HPLC analysis).

N-(2-{3-[^125I]Iodobenzoyl}aminoethyl)maleimide-F3Cys peptide [[^125I]IBMF3]
Tumor uptake in SPECT images, early ([1]; 15 min post-injection, i.v. 570–610 µCi, MDA-MB-435 xenografts): distinct uptake of radioactivity in tumor as early as 15 min post-injection | Tumor visualization in SPECT images at 4 h ([1]; 4 h post-injection, i.v. 570–610 µCi, MDA-MB-435 xenografts): visualized in the SPECT images at 4 h although at lower levels | Tumor radioactivity in SPECT images at later time intervals ([1]; >4 h post-injection, i.v., MDA-MB-435 xenografts): substantial clearance at later time intervals | Thyroid uptake in SPECT images (in vivo deiodination) ([1]; mouse, in vivo, iv): Moderate radioactivity uptake was seen in thyroid | Extraction into brain [2]: 0.03 %ID/g | Radioactivity clearance from blood [2]: > 60% | Tumor-to-blood ratio [2]: 2.1 | Tumor-to-muscle ratio [2]: 4.3 | Hydrophobic radiometabolite (first named), share of total plasma radioactivity [3]: 47% | Hydrophobic radiometabolite (first named), share of total urine radioactivity [3]: 28% | Hydrophobic radiometabolite (second named), share of total plasma radioactivity [3]: 18% | Hydrophobic radiometabolite (second named), share of total urine radioactivity [3]: 6.8% | Hydrophobic radiometabolite (third named), share of total urine radioactivity [3]: 10% | Parent radioligand, share of total urine radioactivity [3]: 42% | Radiolytic decomposition on storage ([4]; 1 week): < 2% | Time stable on storage [4]: at least 1 week
